The text below walks through data of US20190225650A1, “PEPTIDOMIMETIC MACROCYCLES AND USE THEREOF IN REGULATING HIF1ALPHA” (AILERON THERAPEUTICS, INC., priority 2013, published 2019).

In general, IC50 refers to the concentration needed to halve the response being measured. Low readings indicate greater potency, high ones weaker potency.

Bridge positions count the residues as written; N and C are the ends. Square brackets hold non-standard residues; d marks the D form. Ala(3-Me-diazirin-3-yl) = CC1(C[C@H](N)C(=O)O)N=N1; S5 = C=CCCC[C@](C)(N)C(=O)O; Nle = CCCC[C@H](N)C(=O)O; Dap = NC[C@H](N)C(=O)O

The labels stand for the following.
B1: SP-101 (peptide)
peptide: Ac-FIDEEVLM[S5]LVI[S5]MALD-NH2
modifications: staple 9-13
SMILES: CC[C@H](C)[C@H](NC(=O)[C@H](Cc1ccccc1)NC(C)=O)C(=O)N[C@@H](CC(=O)O)C(=O)N[C@@H](CCC(=O)O)C(=O)N[C@@H](CCC(=O)O)C(=O)N[C@H](C(=O)N[C@@H](CC(C)C)C(=O)N[C@@H](CCSC)C(=O)N[C@@]1(C)CCCC=CCCC[C@@](C)(C(=O)N[C@@H](CCSC)C(=O)N[C@@H](C)C(=O)N[C@@H](CC(C)C)C(=O)N[C@@H](CC(=O)O)C(N)=O)NC(=O)[C@H]([C@@H](C)CC)NC(=O)[C@H](C(C)C)NC(=O)[C@H](CC(C)C)NC1=O)C(C)C
B2: SP-98 (peptide)
peptide: Ac-FIDEEVLM[S5]LVI[S5]MGLD-NH2
modifications: staple 9-13
SMILES: CC[C@H](C)[C@H](NC(=O)[C@H](Cc1ccccc1)NC(C)=O)C(=O)N[C@@H](CC(=O)O)C(=O)N[C@@H](CCC(=O)O)C(=O)N[C@@H](CCC(=O)O)C(=O)N[C@H](C(=O)N[C@@H](CC(C)C)C(=O)N[C@@H](CCSC)C(=O)N[C@@]1(C)CCCC=CCCC[C@@](C)(C(=O)N[C@@H](CCSC)C(=O)NCC(=O)N[C@@H](CC(C)C)C(=O)N[C@@H](CC(=O)O)C(N)=O)NC(=O)[C@H]([C@@H](C)CC)NC(=O)[C@H](C(C)C)NC(=O)[C@H](CC(C)C)NC1=O)C(C)C
B3: SP-62 (peptide)
peptide: Ac-FI[Dap]EEVL[Nle][S5]LVI[S5][Nle]ALDRI-NH2
modifications: staple 9-13
SMILES: CCCC[C@H](NC(=O)[C@H](CC(C)C)NC(=O)[C@@H](NC(=O)[C@H](CCC(=O)O)NC(=O)[C@H](CCC(=O)O)NC(=O)[C@H](CN)NC(=O)[C@@H](NC(=O)[C@H](Cc1ccccc1)NC(C)=O)[C@@H](C)CC)C(C)C)C(=O)N[C@@]1(C)CCCC=CCCC[C@@](C)(C(=O)N[C@@H](CCCC)C(=O)N[C@@H](C)C(=O)N[C@@H](CC(C)C)C(=O)N[C@@H](CC(=O)O)C(=O)N[C@@H](CCCNC(=N)N)C(=O)N[C@H](C(N)=O)[C@@H](C)CC)NC(=O)[C@H]([C@@H](C)CC)NC(=O)[C@H](C(C)C)NC(=O)[C@H](CC(C)C)NC1=O
B4: SP-70 (peptide)
peptide: Ac-FIDEQVLA[S5]LVI[S5]AALDRI-NH2
modifications: staple 9-13
SMILES: CC[C@H](C)[C@H](NC(=O)[C@H](CCCNC(=N)N)NC(=O)[C@H](CC(=O)O)NC(=O)[C@H](CC(C)C)NC(=O)[C@H](C)NC(=O)[C@H](C)NC(=O)[C@]1(C)CCCC=CCCC[C@](C)(NC(=O)[C@H](C)NC(=O)[C@H](CC(C)C)NC(=O)[C@@H](NC(=O)[C@H](CCC(N)=O)NC(=O)[C@H](CCC(=O)O)NC(=O)[C@H](CC(=O)O)NC(=O)[C@@H](NC(=O)[C@H](Cc2ccccc2)NC(C)=O)[C@@H](C)CC)C(C)C)C(=O)N[C@@H](CC(C)C)C(=O)N[C@@H](C(C)C)C(=O)N[C@@H]([C@@H](C)CC)C(=O)N1)C(N)=O
B5: SP-64 (peptide)
peptide: Ac-FIDEE[Dap]L[Nle][S5]LVI[S5][Nle]ALDRI-NH2
modifications: staple 9-13
SMILES: CCCC[C@H](NC(=O)[C@H](CC(C)C)NC(=O)[C@H](CN)NC(=O)[C@H](CCC(=O)O)NC(=O)[C@H](CCC(=O)O)NC(=O)[C@H](CC(=O)O)NC(=O)[C@@H](NC(=O)[C@H](Cc1ccccc1)NC(C)=O)[C@@H](C)CC)C(=O)N[C@@]1(C)CCCC=CCCC[C@@](C)(C(=O)N[C@@H](CCCC)C(=O)N[C@@H](C)C(=O)N[C@@H](CC(C)C)C(=O)N[C@@H](CC(=O)O)C(=O)N[C@@H](CCCNC(=N)N)C(=O)N[C@H](C(N)=O)[C@@H](C)CC)NC(=O)[C@H]([C@@H](C)CC)NC(=O)[C@H](C(C)C)NC(=O)[C@H](CC(C)C)NC1=O
B6: SP-68 (peptide)
peptide: Ac-FIDEEVL[Nle][S5]LVI[S5][Nle]ALD[Dap]-NH2
modifications: staple 9-13
SMILES: CCCC[C@H](NC(=O)[C@H](CC(C)C)NC(=O)[C@@H](NC(=O)[C@H](CCC(=O)O)NC(=O)[C@H](CCC(=O)O)NC(=O)[C@H](CC(=O)O)NC(=O)[C@@H](NC(=O)[C@H](Cc1ccccc1)NC(C)=O)[C@@H](C)CC)C(C)C)C(=O)N[C@@]1(C)CCCC=CCCC[C@@](C)(C(=O)N[C@@H](CCCC)C(=O)N[C@@H](C)C(=O)N[C@@H](CC(C)C)C(=O)N[C@@H](CC(=O)O)C(=O)N[C@@H](CN)C(N)=O)NC(=O)[C@H]([C@@H](C)CC)NC(=O)[C@H](C(C)C)NC(=O)[C@H](CC(C)C)NC1=O
B7: SP-63 (peptide)
peptide: Ac-FIDE[Dap]VL[Nle][S5]LVI[S5][Nle]ALDRI-NH2
modifications: staple 9-13
SMILES: CCCC[C@H](NC(=O)[C@H](CC(C)C)NC(=O)[C@@H](NC(=O)[C@H](CN)NC(=O)[C@H](CCC(=O)O)NC(=O)[C@H](CC(=O)O)NC(=O)[C@@H](NC(=O)[C@H](Cc1ccccc1)NC(C)=O)[C@@H](C)CC)C(C)C)C(=O)N[C@@]1(C)CCCC=CCCC[C@@](C)(C(=O)N[C@@H](CCCC)C(=O)N[C@@H](C)C(=O)N[C@@H](CC(C)C)C(=O)N[C@@H](CC(=O)O)C(=O)N[C@@H](CCCNC(=N)N)C(=O)N[C@H](C(N)=O)[C@@H](C)CC)NC(=O)[C@H]([C@@H](C)CC)NC(=O)[C@H](C(C)C)NC(=O)[C@H](CC(C)C)NC1=O
B8: SP-90 (peptide)
peptide: Ac-FIDEEVLM[S5]LVI[S5]MGLDRIKELPELW-NH2
modifications: staple 9-13
SMILES: CC[C@H](C)[C@H](NC(=O)[C@H](Cc1ccccc1)NC(C)=O)C(=O)N[C@@H](CC(=O)O)C(=O)N[C@@H](CCC(=O)O)C(=O)N[C@@H](CCC(=O)O)C(=O)N[C@H](C(=O)N[C@@H](CC(C)C)C(=O)N[C@@H](CCSC)C(=O)N[C@@]1(C)CCCC=CCCC[C@@](C)(C(=O)N[C@@H](CCSC)C(=O)NCC(=O)N[C@@H](CC(C)C)C(=O)N[C@@H](CC(=O)O)C(=O)N[C@@H](CCCNC(=N)N)C(=O)N[C@H](C(=O)N[C@@H](CCCCN)C(=O)N[C@@H](CCC(=O)O)C(=O)N[C@@H](CC(C)C)C(=O)N2CCC[C@H]2C(=O)N[C@@H](CCC(=O)O)C(=O)N[C@@H](CC(C)C)C(=O)N[C@@H](Cc2c[nH]c3ccccc23)C(N)=O)[C@@H](C)CC)NC(=O)[C@H]([C@@H](C)CC)NC(=O)[C@H](C(C)C)NC(=O)[C@H](CC(C)C)NC1=O)C(C)C
B9: SP-93 (peptide)
peptide: Ac-FIDEEVLM[S5]LVI[S5]MGLDRIKELP-NH2
modifications: staple 9-13
SMILES: CC[C@H](C)[C@H](NC(=O)[C@H](Cc1ccccc1)NC(C)=O)C(=O)N[C@@H](CC(=O)O)C(=O)N[C@@H](CCC(=O)O)C(=O)N[C@@H](CCC(=O)O)C(=O)N[C@H](C(=O)N[C@@H](CC(C)C)C(=O)N[C@@H](CCSC)C(=O)N[C@@]1(C)CCCC=CCCC[C@@](C)(C(=O)N[C@@H](CCSC)C(=O)NCC(=O)N[C@@H](CC(C)C)C(=O)N[C@@H](CC(=O)O)C(=O)N[C@@H](CCCNC(=N)N)C(=O)N[C@H](C(=O)N[C@@H](CCCCN)C(=O)N[C@@H](CCC(=O)O)C(=O)N[C@@H](CC(C)C)C(=O)N2CCC[C@H]2C(N)=O)[C@@H](C)CC)NC(=O)[C@H]([C@@H](C)CC)NC(=O)[C@H](C(C)C)NC(=O)[C@H](CC(C)C)NC1=O)C(C)C
B10: SP-97 (peptide)
peptide: Ac-FIDEEVLM[S5]LVI[S5]MGLDRI-NH2
modifications: staple 9-13
SMILES: CC[C@H](C)[C@H](NC(=O)[C@H](CCCNC(=N)N)NC(=O)[C@H](CC(=O)O)NC(=O)[C@H](CC(C)C)NC(=O)CNC(=O)[C@H](CCSC)NC(=O)[C@]1(C)CCCC=CCCC[C@](C)(NC(=O)[C@H](CCSC)NC(=O)[C@H](CC(C)C)NC(=O)[C@@H](NC(=O)[C@H](CCC(=O)O)NC(=O)[C@H](CCC(=O)O)NC(=O)[C@H](CC(=O)O)NC(=O)[C@@H](NC(=O)[C@H](Cc2ccccc2)NC(C)=O)[C@@H](C)CC)C(C)C)C(=O)N[C@@H](CC(C)C)C(=O)N[C@@H](C(C)C)C(=O)N[C@@H]([C@@H](C)CC)C(=O)N1)C(N)=O
B11: SP-77 (peptide)
peptide: Ac-FIDEE[S5]LMS[S5]VIEMGLDRIKELPELWL-NH2
modifications: staple 6-10
SMILES: CC[C@H](C)[C@H](NC(=O)[C@H](Cc1ccccc1)NC(C)=O)C(=O)N[C@@H](CC(=O)O)C(=O)N[C@@H](CCC(=O)O)C(=O)N[C@@H](CCC(=O)O)C(=O)N[C@@]1(C)CCCC=CCCC[C@@](C)(C(=O)N[C@H](C(=O)N[C@H](C(=O)N[C@@H](CCC(=O)O)C(=O)N[C@@H](CCSC)C(=O)NCC(=O)N[C@@H](CC(C)C)C(=O)N[C@@H](CC(=O)O)C(=O)N[C@@H](CCCNC(=N)N)C(=O)N[C@H](C(=O)N[C@@H](CCCCN)C(=O)N[C@@H](CCC(=O)O)C(=O)N[C@@H](CC(C)C)C(=O)N2CCC[C@H]2C(=O)N[C@@H](CCC(=O)O)C(=O)N[C@@H](CC(C)C)C(=O)N[C@@H](Cc2c[nH]c3ccccc23)C(=O)N[C@@H](CC(C)C)C(N)=O)[C@@H](C)CC)[C@@H](C)CC)C(C)C)NC(=O)[C@H](CO)NC(=O)[C@H](CCSC)NC(=O)[C@H](CC(C)C)NC1=O

T1 sequence (Q09472 323-423 limits assumed): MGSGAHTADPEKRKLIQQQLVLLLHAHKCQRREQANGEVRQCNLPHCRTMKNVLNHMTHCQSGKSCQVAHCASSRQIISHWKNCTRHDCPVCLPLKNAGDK

This test addresses T1, His6-tagged p300 (AA 323-423) (UniProt Q09472 323-423).
T1 construct: range 323-423; also called p300-CH; not shown: His6 tag
Put plainly: TR-FRET HIF1a/p300 displacement; grade = IC50 >700 nM. A digest of the protocol:
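Peptides competed with HIF1α C-terminal transactivation domain for His6-p300-CH (complex 300 nM final) during 1 h at RT in 20 mM HEPES pH 7.4, 150 mM NaCl, 7.5 mM CHAPS, 1 mM DTT. Anti-Flag-K (0.5 μM) and anti-His-D2 (4 nM) were added for 2 h. IC50 was derived from the TR-FRET ratio by one-site fit.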
(In TR-FRET formats the signal depends on donor and acceptor labels being close together.)
For B1, the 50% inhibitory concentration (IC50) is more than 700 nM.
Under B2 stands more than 700 nM.
Consider Ac-FIDEEV[Ala(3-Me-diazirin-3-yl)][Nle][S5]LVI[S5][Nle]ALDRI-NH2 (staple 9-13) [SP-71], for which the concentration for half-maximal inhibition (IC50) was more than 700 nM.
B3: the 50% inhibitory concentration (IC50) was more than 700 nM.
In turn, B4 returned a half-inhibitory concentration (IC50) of more than 700 nM.
In the case of B5, the 50% inhibitory concentration (IC50) is more than 700 nM.
As for B6, the IC50 is more than 700 nM.
B7 came in with an IC50 of more than 700 nM.
B8: the IC50 is more than 700 nM.
The result for B9 reads more than 700 nM.
Molecule B10 yielded a 50% inhibitory concentration (IC50) of more than 700 nM.
The molecule B11 showed an IC50 of more than 700 nM.
